According to patent publication US8399206B2, “Methods for diagnosis, prognosis and methods of treatment” (Nodality, Inc., priority 2008, dated 2013):

Columns and labels:
AML BMMC leukemic blasts = test: SCNP modulated signaling assay, AML study No. 2 (BMMC, CR vs NR, clinical sub-groups); type: cell-based, human
[1] = system: healthy bone marrow myeloblast (BMMC); test: FLT3L-induced signaling in healthy control BMMC myeloblasts (Example 9); type: cell-based, human; details: BMMC samples
Description: This example identifies intracellular signaling pathways associated with FLT3 ITD in two independent cohorts of diagnostic AML samples that serve as an improvement over current clinical tools in the identification of clinically meaningful altered FLT 3 and has implications for cohort selection in the development of FLT3 inhibitors. The two cohorts of data were further analyzed to investigate the differences in signaling between FLT-WT and FLT-ITD samples. The first cohort of data (“study 1”) comprised the 34 samples from University Health Network outlined in Table 16 and Table 19. The second cohort of data (“study 2”) comprised an 83 sample subset of MD Anderson Cancer Center data outlined in Table 16 (and Table 19). The 83 sample subset was selected based on known FLT3 mutation status. Both cohorts of data were used to investigate differences in FLT3 signaling between leukemic blasts and control data.
In order to further characterize wild-type FLT receptor signaling in AML, we compared FLT3L-induced signaling in the myeloblast population of control BMMC samples with FLT3L-induced signaling in the leukemic blast population of FLT3-WT AML samples.

[2] = Study No. 2, all patients, CR samples
[3] = Study No. 2, all patients, NR samples

Row | Molecule | Flt3L induced p-Akt and p-Erk (AML BMMC leukemic blasts; patients over age 60 or with secondary AML lacking response to induction chemotherapy) | H2O2 and FLT3L responses, NR vs CR (AML BMMC leukemic blasts; patients younger than 60 years old (so in the source)) | FLT3L activation of p-Akt and p-S6 at later time point [1] | range of FLT3L-induced S6 signaling [1] | FLT3L-induced p-Akt and p-S6 ([1]; early time points (4 minutes, 10 minutes)) | Mean Value of CRs, p-Stat1 Total Phospho (AML BMMC leukemic blasts; [2]) | Mean Value of CRs, p-Stat3 Total Phospho (AML BMMC leukemic blasts; [2]) | Mean Value of CRs, p-Stat3 Fold (AML BMMC leukemic blasts; Study No. 2, all patients, CR samples, negative = down regulation) | Mean Value of NRs, p-Stat1 Total Phospho (AML BMMC leukemic blasts; [3]) | Mean Value of NRs, p-Stat3 Fold (AML BMMC leukemic blasts; [3]) | Mean Value of NRs, p-Stat3 Total Phospho (AML BMMC leukemic blasts; [3]) | IL-27 response, NR vs CR (AML BMMC leukemic blasts; patients younger than 60 years old)
1 | FLT-3L: fms-like tyrosine kinase receptor-3 ligand (protein, UniProt P49771 27-235, looked up) Fms-related tyrosine kinase 3 …: TQDCSFQHSPISSDFAVKIRELSDYLLQDYPVTVASNLQDEELCGGLWRLVLAQRWMERLKTVAGSKMQGLLERVNTEIHFVTKCAFQPPPSCLRFVQTNISRLLQETSEQLVALKPWITRQNFSRCLELQCQPDSSTLPPPWSPRPLEATAPTAPQPPLLLLLLLPVGLLLLAAAWCLHWQRTRRRTPRPGEQVPPVPSPQDLLLVEH | increased Flt3L induced p-Akt and p-Erk | NRs have higher H2O2 and FLT3L responses than CRs | largely diminished by 15 minutes | narrow range of S6 signaling | increased levels of p-Akt and p-S6 |  |  |  |  |  |  | 
2 | IL-27: interleukin-27 (protein, UniProt Q8NEV9 29-243; Q14213 21-229, looked up) Interleukin-27 subunit alpha: FPRPPGRPQLSLQELRREFTVSLHLARKLLSEVRGQAHRFAESHLPGVNLYLLPLGEQLPDVSLTFQAWRRLSDPERLCFISTTLQPFHALLGGLGTQGRWTNMERMQLWAMRLDLRDLQRHLRFQVLAAGFNLPEEEEEEEEEEEEERKGLLPGALGSALQGPAQVSWPQLLSTYRLLHSLELVLSRAVRELLLLSKAGHSVWPLGFPTLSPQP Interleukin-27 subunit beta: RKGPPAALTLPRVQCRASRYPIAVDCSWTLPPAPNSTSPVSFIATYRLGMAARGHSWPCLQQTPTSTSCTITDVQLFSMAPYVLNVTAVHPWGSSSSFVPFITEHIIKPDPPEGVRLSPLAERQLQVQWEPPGSWPFPEIFSLKYWIRYKRQGAARFHRVGPIEATSFILRAVRPRARYYVQVAAQDLTDYGELSDWSLPATATMSLGK |  |  |  |  |  | 1.66 | 1.88 | 0.22 | 2.63 | 0.58 | 2.43 | NRs have higher IL-27 response than CRs
